Values quoted from earlier work in article PMC3320014.

Molecular target: Protein Z-dependent protease inhibitor (Homo sapiens) (UniProt Q9UK55)
Chain of UniProt Q9UK55 (Q9UK55 22-444): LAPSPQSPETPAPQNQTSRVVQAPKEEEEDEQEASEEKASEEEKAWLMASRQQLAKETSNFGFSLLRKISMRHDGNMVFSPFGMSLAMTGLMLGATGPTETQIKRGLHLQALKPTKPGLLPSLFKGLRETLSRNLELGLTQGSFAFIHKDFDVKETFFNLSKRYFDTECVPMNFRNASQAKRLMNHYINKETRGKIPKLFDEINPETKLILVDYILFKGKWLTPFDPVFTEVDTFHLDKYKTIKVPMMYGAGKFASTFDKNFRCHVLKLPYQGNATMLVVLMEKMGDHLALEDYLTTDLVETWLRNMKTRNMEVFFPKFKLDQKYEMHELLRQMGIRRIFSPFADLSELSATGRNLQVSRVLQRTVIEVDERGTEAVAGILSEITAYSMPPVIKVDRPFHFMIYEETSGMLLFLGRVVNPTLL

Kd: 7 nM
Substance: Protein Z (from UniProt P22891)
